Experimental findings from US20160185837A1 (Medimmune Limited, priority 2013, published 2016) are described below.

As a reminder, the EC50 is the concentration giving half of the maximal effect.

Like-named read-outs stand apart in the source and are kept apart here.

Common to all, as to assay type: cell-based
The target of experiment [1] is T1, mouse GLP-1 receptor (mGLP-1r) (Mus musculus, UniProt O35659).
T1 construct: expressed in transfected cells; host or cells: HEK293s or CHO cells
T1 sequence (O35659 22-463): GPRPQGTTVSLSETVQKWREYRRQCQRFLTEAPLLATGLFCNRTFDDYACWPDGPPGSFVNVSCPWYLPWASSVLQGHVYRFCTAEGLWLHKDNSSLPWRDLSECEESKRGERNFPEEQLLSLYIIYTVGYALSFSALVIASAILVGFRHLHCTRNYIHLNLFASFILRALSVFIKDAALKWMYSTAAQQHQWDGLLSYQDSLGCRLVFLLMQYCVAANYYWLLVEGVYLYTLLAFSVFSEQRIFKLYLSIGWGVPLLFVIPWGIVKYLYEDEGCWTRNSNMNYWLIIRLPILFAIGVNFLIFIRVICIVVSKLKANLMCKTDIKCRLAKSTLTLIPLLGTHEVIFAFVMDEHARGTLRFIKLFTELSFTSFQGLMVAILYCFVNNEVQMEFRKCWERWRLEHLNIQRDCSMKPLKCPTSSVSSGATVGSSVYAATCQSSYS
The experiment in a line: BSA-cAMP assay, cells expressing mouse GLP-1 receptor. The settings on record: BSA-cAMP assay, read-out: mGLP1r cAMP activity EC50. The method, boiled down:
(§1)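 EC50 is the midpoint of an unconstrained 4-parameter logistic fit to HTRF cAMP data, expressed as percent of maximal native agonist response, from two separate occasions. Rodent (mouse, rat) GLP-1R- or GIPR-expressing cells were incubated with compound 30 min at room temperature in 0.1% BSA medium, in duplicate.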
On the technique in general: Cyclic AMP is a second messenger, typically raised through Gs and lowered through Gi signalling.

The target in experiment [2] is T2, mouse GIP receptor (mGIPr) (Mus musculus, UniProt Q0P543).
T2 construct: expressed in transfected cells; host or cells: HEK293s or CHO cells
T2 sequence (Q0P543 19-460): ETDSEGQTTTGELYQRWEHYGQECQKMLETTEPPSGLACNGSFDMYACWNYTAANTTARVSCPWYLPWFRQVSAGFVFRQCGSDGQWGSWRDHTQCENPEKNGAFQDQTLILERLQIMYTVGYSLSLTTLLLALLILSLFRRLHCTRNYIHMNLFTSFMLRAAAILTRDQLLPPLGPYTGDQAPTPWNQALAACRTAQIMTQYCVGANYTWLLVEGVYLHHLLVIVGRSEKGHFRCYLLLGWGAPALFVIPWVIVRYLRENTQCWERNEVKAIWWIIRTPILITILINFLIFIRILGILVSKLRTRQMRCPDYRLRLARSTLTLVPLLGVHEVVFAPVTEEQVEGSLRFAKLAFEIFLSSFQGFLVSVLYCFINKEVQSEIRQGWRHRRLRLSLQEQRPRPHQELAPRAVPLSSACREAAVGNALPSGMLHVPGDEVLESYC
The experiment in a line: BSA-cAMP assay, cells expressing mouse GIP receptor. As to conditions: BSA-cAMP assay, read-out: mGIPr cAMP activity EC50. The method, boiled down:
as §1

The target in experiment [3] is T3, human glucagon receptor (GCGr) (Homo sapiens, UniProt P47871).
T3 construct: expressed in transfected cells; host or cells: HEK293s or CHO cells
T3 sequence (P47871 26-477): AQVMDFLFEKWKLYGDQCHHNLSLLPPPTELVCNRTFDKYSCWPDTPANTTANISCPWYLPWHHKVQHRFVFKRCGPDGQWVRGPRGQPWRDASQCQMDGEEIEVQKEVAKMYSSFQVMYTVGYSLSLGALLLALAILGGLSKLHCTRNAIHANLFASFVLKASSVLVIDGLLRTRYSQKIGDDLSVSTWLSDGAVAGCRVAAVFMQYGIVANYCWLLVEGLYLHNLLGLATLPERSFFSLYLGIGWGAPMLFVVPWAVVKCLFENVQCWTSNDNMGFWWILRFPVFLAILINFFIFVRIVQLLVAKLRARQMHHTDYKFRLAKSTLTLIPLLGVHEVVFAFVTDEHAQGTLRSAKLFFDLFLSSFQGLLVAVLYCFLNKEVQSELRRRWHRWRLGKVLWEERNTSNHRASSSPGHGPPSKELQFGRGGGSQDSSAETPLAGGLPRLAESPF
The experiment in a line: BSA-cAMP assay, cells expressing human glucagon receptor.

Experiment [4] addresses T4, human GLP-1 receptor (hGLP-1r) (Homo sapiens, UniProt P43220).
T4 construct: expressed in transfected cells
As to the kind of experiment: BSA-cAMP assay, cells expressing human GLP-1 receptor. As to conditions: BSA-cAMP assay, read-out: hGLP1r cAMP activity EC50. The method, boiled down: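 EC50 came from an unconstrained 4-parameter logistic fit of HTRF cAMP data expressed as percent of maximal native agonist activation, tested on two occasions. Thawed receptor-expressing cells (hGLP-1r, hGIPr at 0.5×10^5 cells/ml) treated 30 min at room temperature in 0.1% BSA-containing medium; two distinct hGIPr lines.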

The next experiment concerns the target T5, rat GIP receptor (rGIPr) (Rattus norvegicus, UniProt P43219).
T5 construct: expressed in transfected cells; host or cells: HEK293s or CHO cells
T5 sequence (P43219 19-455): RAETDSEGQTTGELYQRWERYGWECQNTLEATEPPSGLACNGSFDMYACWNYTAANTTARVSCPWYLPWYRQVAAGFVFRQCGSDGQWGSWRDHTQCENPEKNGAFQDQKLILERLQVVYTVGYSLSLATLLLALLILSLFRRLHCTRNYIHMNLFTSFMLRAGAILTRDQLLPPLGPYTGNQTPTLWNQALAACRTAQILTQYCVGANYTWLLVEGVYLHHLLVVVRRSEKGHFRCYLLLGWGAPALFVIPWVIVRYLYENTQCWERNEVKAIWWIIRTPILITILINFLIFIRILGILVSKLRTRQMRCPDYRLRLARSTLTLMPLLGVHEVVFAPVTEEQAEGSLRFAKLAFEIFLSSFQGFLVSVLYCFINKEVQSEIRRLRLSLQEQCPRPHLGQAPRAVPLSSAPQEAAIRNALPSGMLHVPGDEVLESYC
The experiment in a line: BSA-cAMP assay, cells expressing rat GIP receptor. As to conditions: BSA-cAMP assay, read-out: rGIPr cAMP activity EC50. Put shortly:
as §1

[5] abbreviates: Batch 1, read-out: hGCGr cAMP activity EC50.
[6] abbreviates: Batch 2, read-out: hGCGr cAMP activity EC50.

T4 sequence (P43220 24-463): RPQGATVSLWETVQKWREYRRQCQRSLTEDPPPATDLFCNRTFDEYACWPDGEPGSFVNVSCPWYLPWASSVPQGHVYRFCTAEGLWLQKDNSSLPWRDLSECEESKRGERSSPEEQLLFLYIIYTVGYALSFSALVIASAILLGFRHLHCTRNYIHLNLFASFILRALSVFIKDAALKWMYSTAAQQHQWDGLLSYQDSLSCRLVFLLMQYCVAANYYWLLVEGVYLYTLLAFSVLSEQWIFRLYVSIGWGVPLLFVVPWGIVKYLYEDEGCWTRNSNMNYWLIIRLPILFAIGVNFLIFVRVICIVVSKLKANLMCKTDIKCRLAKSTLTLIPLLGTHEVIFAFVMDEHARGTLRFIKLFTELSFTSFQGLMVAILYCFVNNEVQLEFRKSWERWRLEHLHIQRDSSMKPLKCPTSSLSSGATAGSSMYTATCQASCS

For the substance “IP412: Fc fusion, IgG1-TM, SEQ ID NO:387; agonist peptide YSEGTFTSDYSKLLEEEANRLFIEWLLAGG (YSEGTFTSDYSKLLEEEANRLFIEWLLAGGGGGGSGGGGSGGGGSGGGGSATHTCPPC)”, the EC50 is 1.2 nM in experiment [1] (Batch 1); 0.4 nM in experiment [2] (Batch 1); over 440 nM in experiment [3] (setting [5]); 0.073 nM in experiment [4] (Batch 1); 0.018 nM with rat GIP receptor (rGIPr) (Batch 1).
Take “IP396 (YSEGTFTSDYSKLLERQAIDEFIAWLLKGGGGGGGSGGGGSGGGGSGGGGSACPPC)”: the EC50 in experiment [1] (Batch 1) stood at 1.2 nM; in experiment [1] (Batch 2), 2.5 nM; in experiment [2] (Batch 1), 0.28 nM; in experiment [2] (Batch 2), 0.78 nM; in experiment [3] (setting [5]), 330 nM; in experiment [3] (setting [6]), 250 nM. Moreover, the EC50 in experiment [4] (Batch 1) worked out at 0.11 nM; in experiment [4] (Batch 2), 0.11 nM; with rat GIP receptor (rGIPr) (Batch 1) it was 0.19 nM; in the experiment with rat GIP receptor (rGIPr) (Batch 2), 0.014 nM.
“IP320 (YSEGTFTSDYAAAAEAAAAAAFAAWLAAAAGGGGGSGGGGSGGGGSGGGGSACPPC)”: the EC50 in experiment [1] (Batch 1) was 2500 nM; in experiment [2] (Batch 1), over 3930 nM; in experiment [3] (setting [5]), 3800 nM; in experiment [3] (setting [6]), 3800 nM; in experiment [4] (Batch 1), 160 nM; in experiment [4] (Batch 2), 260 nM. For the same substance, the EC50 in the experiment with rat GIP receptor (rGIPr) (Batch 1) stood at 130 nM.
